Measured values: patent US20210032351A1 (XDCEXPLORER SHANGHAI, published 2021)
Each block holds one binder with its values, some of them ahead of it. Ends that are not written are not given here. * marks the point of attachment. Biotin = O=C1N[C@H]2[C@H](CS[C@H]2CCCCC(=O)*)N1

Key:
pep28 = target: T1, pep28 (cysteine pairing not given here); assay: polypeptide dot matrix ELISA
T1 peptide: EEDGVRKCKKCEGPCRK(Biotin)

pep08 = target: T2, pep08 (cysteine pairing not given here); assay: polypeptide dot matrix ELISA
T2 peptide: YVVTDHGSCVRACGADK(Biotin)

pep26 = target: T3, pep26 (cysteine pairing not given here); assay: polypeptide dot matrix ELISA
T3 peptide: EMEEDGVRKCKKCEGPK(Biotin)

pep14 = target: T4, pep14 (cysteine pairing not given here); assay: polypeptide dot matrix ELISA
T4 peptide: GSCVRACGADSYEMEEK(Biotin)

pep23 = target: T5, pep23 (cysteine pairing not given here); assay: polypeptide dot matrix ELISA
T5 peptide: DSYEMEEDGVRKCKKCK(Biotin)

pep10 = target: T6, pep10 (cysteine pairing not given here); assay: polypeptide dot matrix ELISA
T6 peptide: VTDHGSCVRACGADSYK(Biotin)

pep04 = target: T7, pep04; assay: polypeptide dot matrix ELISA
T7 peptide: KKGNYVVTDHGSCVRAK(Biotin)

pep21 = target: T8, pep21; assay: polypeptide dot matrix ELISA
T8 peptide: GADSYEMEEDGVRKCKK(Biotin)

pep01 = target: T9, pep01; assay: polypeptide dot matrix ELISA
T9 peptide: LEEKKGNYVVTDHGSCK(Biotin)

pep18 = target: T10, pep18; assay: polypeptide dot matrix ELISA
T10 peptide: RACGADSYEMEEDGVRK(Biotin)

pep05 = target: T11, pep05 (cysteine pairing not given here); assay: polypeptide dot matrix ELISA
T11 peptide: KGNYVVTDHGSCVRACK(Biotin)

pep09 = target: T12, pep09 (cysteine pairing not given here); assay: polypeptide dot matrix ELISA
T12 peptide: VVTDHGSCVRACGADSK(Biotin)

pep19 = target: T13, pep19; assay: polypeptide dot matrix ELISA
T13 peptide: ACGADSYEMEEDGVRKK(Biotin)

pep07 = target: T14, pep07 (cysteine pairing not given here); assay: polypeptide dot matrix ELISA
T14 peptide: NYVVTDHGSCVRACGAK(Biotin)

pep11 = target: T15, pep11 (cysteine pairing not given here); assay: polypeptide dot matrix ELISA
T15 peptide: TDHGSCVRACGADSYEK(Biotin)

pep06 = target: T16, pep06 (cysteine pairing not given here); assay: polypeptide dot matrix ELISA
T16 peptide: GNYVVTDHGSCVRACGK(Biotin)

pep25 = target: T17, pep25 (cysteine pairing not given here); assay: polypeptide dot matrix ELISA
T17 peptide: YEMEEDGVRKCKKCEGK(Biotin)

pep15 = target: T18, pep15 (cysteine pairing not given here); assay: polypeptide dot matrix ELISA
T18 peptide: SCVRACGADSYEMEEDK(Biotin)

pep12 = target: T19, pep12 (cysteine pairing not given here); assay: polypeptide dot matrix ELISA
T19 peptide: DHGSCVRACGADSYEMK(Biotin)

pep32 = target: T20, pep32 (cysteine pairing not given here); assay: polypeptide dot matrix ELISA
T20 peptide: VRKCKKCEGPCRKVCNK(Biotin)

pep24 = target: T21, pep24 (cysteine pairing not given here); assay: polypeptide dot matrix ELISA
T21 peptide: SYEMEEDGVRKCKKCEK(Biotin)

pep29 = target: T22, pep29 (cysteine pairing not given here); assay: polypeptide dot matrix ELISA
T22 peptide: EDGVRKCKKCEGPCRKK(Biotin)

pep31 = target: T23, pep31 (cysteine pairing not given here); assay: polypeptide dot matrix ELISA
T23 peptide: GVRKCKKCEGPCRKVCK(Biotin)

pep03 = target: T24, pep03; assay: polypeptide dot matrix ELISA
T24 peptide: EKKGNYVVTDHGSCVRK(Biotin)

pep17 = target: T25, pep17; assay: polypeptide dot matrix ELISA
T25 peptide: VRACGADSYEMEEDGVK(Biotin)

pep30 = target: T26, pep30 (cysteine pairing not given here); assay: polypeptide dot matrix ELISA
T26 peptide: DGVRKCKKCEGPCRKVK(Biotin)

pep33 = target: T27, pep33 (cysteine pairing not given here); assay: polypeptide dot matrix ELISA
T27 peptide: RKCKKCEGPCRKVCNGK(Biotin)

pep35 = target: T28, pep35 (cysteine pairing not given here); assay: polypeptide dot matrix ELISA
T28 peptide: CKKCEGPCRKVCNGIGK(Biotin)

pep16 = target: T29, pep16 (cysteine pairing not given here); assay: polypeptide dot matrix ELISA
T29 peptide: CVRACGADSYEMEEDGK(Biotin)

pep34 = target: T30, pep34 (cysteine pairing not given here); assay: polypeptide dot matrix ELISA
T30 peptide: KCKKCEGPCRKVCNGIK(Biotin)

pep13 = target: T31, pep13 (cysteine pairing not given here); assay: polypeptide dot matrix ELISA
T31 peptide: HGSCVRACGADSYEMEK(Biotin)

pep20 = target: T32, pep20 (cysteine pairing not given here); assay: polypeptide dot matrix ELISA
T32 peptide: CGADSYEMEEDGVRKCK(Biotin)

pep02 = target: T33, pep02; assay: polypeptide dot matrix ELISA
T33 peptide: EEKKGNYVVTDHGSCVK(Biotin)

pep27 = target: T34, pep27 (cysteine pairing not given here); assay: polypeptide dot matrix ELISA
T34 peptide: MEEDGVRKCKKCEGPCK(Biotin)

[1] = target: T35, human EGFRvIII-hFc protein (human, UniProt P00533 25-645); assay: ELISA, EGFRvIII-hFc coated
T35 construct: extracellular domain; also called immunogen A; hFc-tagged EGFRvIII protein; not shown: human IgG Fc fragment (hFc) of the pCpC vector

binding result (pep28): no binding | binding result (pep08): no binding | binding result (pep26): no binding | binding result (pep14): no binding | binding result (pep23): no binding | binding result (pep10): no binding | binding result (pep04): no binding | binding result (pep21): no binding | binding result (pep01): no binding | binding result (pep18): no binding | binding result (pep05): no binding | binding result (pep09): no binding | binding result (pep19): no binding | binding result (pep07): no binding | binding result (pep11): no binding | binding result (pep06): no binding | binding result (pep25): no binding | binding result (pep15): no binding | binding result (pep12): no binding | binding result (pep32): no binding | binding result (pep24): no binding | binding result (pep29): no binding | binding result (pep31): no binding | binding result (pep03): no binding | binding result (pep17): no binding | binding result (pep30): no binding | binding result (pep33): no binding | binding result (pep35): no binding | binding result (pep16): no binding | binding result (pep34): no binding | binding result (pep13): no binding | binding result (pep20): no binding | binding result (pep02): no binding | binding result (pep27): no binding
B1: Murine anti-75G7 (antibody, V domains shown)
VH: EVQLQQSGPELVKPGASVKIPCKASGYTFTDYNMDWVKQSHGKSLEWIGDINPNNGDTIYNQKFKGKATLTVDKSSSTAYMELRSLTSEDTAVYYCARGDYDGYYPVYYAMDYWGQGTSVTVSS
VL: ENVLTQSPAIMSASPGEKVTMTCRASSSVSSSYLHWYQQKSGASPKLWIFSTSNLAAGVPARFSGSGSGTSYSLTVSSVEAEDAATYYCQQYSGYPLTFGAGTKLELK
notes: murine hybridoma antibody; also called 75G7C6

EC50 [1]: 0.02 nM | Maximum OD450 value [1]: 3.03 OD450 | OD450 nm at 0.0001 nM antibody [1]: 0.07 OD450 | OD450 nm at 0.001 nM antibody [1]: 0.08 OD450 | OD450 nm at 0.01 nM antibody [1]: 0.15 OD450 | OD450 nm at 0.1 nM antibody [1]: 0.65 OD450 | OD450 nm at 1 nM antibody [1]: 2.69 OD450 | OD450 nm at 10 nM antibody [1]: 3.41 OD450 | OD450 nm at 100 nM antibody [1]: 3.44 OD450
B2: Chimeric antibody 75G7 (antibody, human IgG1, V domains shown)
VH: B1 VH
VL: B1 VL
notes: also called c75G7C6; chimeric antibody c75G7C6
